Assay [1] deals with T1, biotinylated AviTagged prefusion RSV F DS-Cav1, subtype A (strain A2) (Human respiratory syncytial virus A, …, stabilised, biotin (by biotin ligase BirA, on the AviTag)).
T1 construct: also called Biotinylated DS-Cav1; immobilized prefusion RSV F; source: FreeStyle 293-F, transfected, purified; biotinylated with BirA, Superdex 200; copies: 3 + 3
Nature of the assay: Luminex bead binding assay; biotinylated RSV F proteins coupled to avidin-coated MagPlex beads (1 μg per 50,000 beads); IgG in 10-fold serial dilutions 1 μM to 0.1 pM; PE-conjugated anti-human IgG Fc; PBS, 0.1% BSA, 0.05% Tween 20. To be noted: both partners purified.

Assay [2] concerns the target full-length prefusion F (RSV F residues 1-574 with the DS-Cav1 stabilizing mutations) on the cell surface (Human respiratory syncytial virus A, …, UniProt P03420, stabilised). As to the kind of experiment: flow cytometry on cells; Expi293 cells expressing RSV F 1-574 DS-Cav1 or its N426D variant; antibodies 1 μg/ml, 1 hour at 4°C; Alexa488 anti-human secondary; normalized to motavizumab binding. To be noted: one partner purified.

The target in assay [3] is prefusion-stabilized RSV F ectodomain DS-Cav1 (strain A2), furin-cleaved trimer with foldon, tags removed (respiratory syncytial virus, strain A2 …, UniProt P03420). Nature of the assay: cell-based or functional assay.
Assay [4] deals with T1, biotinylated AviTagged prefusion RSV F …. As to the kind of experiment: SPR; biotinylated DS-Cav1 immobilised on an SA chip (292 RU), Biacore X100; AM14 Fab 5 nM to 19.5 pM in HBS-EP+; 1:1 binding model. As to conditions: both partners purified.
The target in assay [5] is T2, biotinylated prefusion RSV F DS-Cav1, subtype B (Human respiratory syncytial virus B, …, UniProt P13843, stabilised, biotin).
T2 construct: also called prefusion RSV F derived from B subtype; source: biotinylated protein coupled to avidin-coated beads; copies: 3 + 3
As to the kind of experiment: Luminex bead binding assay. To be noted: both partners purified.

Usually EC50 stands for the midpoint of the concentration-response curve. As usually defined, the Kd is a measure of binding affinity in units of concentration. Lower therefore signals tighter binding. A word on the koff: it is the first-order rate constant of dissociation. Lower therefore signals slow dissociation. The kon is the rate constant with which the complex forms. A lower kon goes with slower complex formation.

B1: AM14 IgG (antibody, V domains shown)
VH: EVQLVESGGGVVQPGRSLRLSCAASGFSFSHYAMHWVRQAPGKGLEWVAVISYDGENTYYADSVKGRFSISRDNSKNTVSLQMNSLRPEDTALYYCARDRIVDDYYYYGMDVWGQGATVTVSS
VL: DIQMTQSPSSLSASVGDRVTITCQASQDIKKYLNWYHQKPGKVPELLMHDASNLETGVPSRFSGRGSGTDFTLTISSLQPEDIGTYYCQQYDNLPPLTFGGGTKVEIK
Regarding B1, a half-maximal response in assay [1] (EC50) required 0.63 nM. In addition, the binding result in assay [2] is on record as “binds”. In assay [3], the “IC50 of neutralisation of RSV strain A2 (F of the virus), microneutralization on HEp-2 cells” value was 12.4 ng/mL and the “IC50 of neutralisation of RSV strain A Long (F of the virus), microneutralization on HEp-2 cells” value was 13.6 ng/mL.

B2: AM14 Fab (Fab, V domains shown)
VH: EVQLVESGGGVVQPGRSLRLSCAASGFSFSHYAMHWVRQAPGKGLEWVAVISYDGENTYYADSVKGRFSISRDNSKNTVSLQMNSLRPEDTALYYCARDRIVDDYYYYGMDVWGQGATVTVSS
VL: DIQMTQSPSSLSASVGDRVTITCQASQDIKKYLNWYHQKPGKVPELLMHDASNLETGVPSRFSGRGSGTDFTLTISSLQPEDIGTYYCQQYDNLPPLTFGGGTKVEIK
Regarding B2, in assay [4], the Kd stood at 0.18 nM, the dissociation rate constant (koff) stood at 0.0034 s⁻¹ and the kon amounted to 1.87e+07 M⁻¹ s⁻¹.

B3: motavizumab IgG (antibody, V domains shown)
VH: QVTLRESGPALVKPTQTLTLTCTFSGFSLSTAGMSVGWIRQPPGKALEWLADIWWDDKKHYNPSLKDRLTISKDTSKNQVVLKVTNMDPADTATYYCARDMIFNFYFDVWGQGTTVTVSS
VL: DIQMTQSPSTLSASVGDRVTITCSASSRVGYMHWYQQKPGKAPKLLIYDTSKLASGVPSRFSGSGSGTEFTLTISSLQPDDFATYYCFQGSGYPFTFGGGTKVEIK
Consider B3, for which the binding result in assay [5] is “binds”.

The record behind these values is publication PMC4498696 (PLoS Pathogens, 2015).
